Reference: publication PMC5080453 (2016)

Target: BMPER_N (Homo sapiens (Human), UniProt Q8N8U9)
Experiment: SPR (Tsg on chip); one cell MST

Sequence of BMPER_N (Q8N8U9 40-369): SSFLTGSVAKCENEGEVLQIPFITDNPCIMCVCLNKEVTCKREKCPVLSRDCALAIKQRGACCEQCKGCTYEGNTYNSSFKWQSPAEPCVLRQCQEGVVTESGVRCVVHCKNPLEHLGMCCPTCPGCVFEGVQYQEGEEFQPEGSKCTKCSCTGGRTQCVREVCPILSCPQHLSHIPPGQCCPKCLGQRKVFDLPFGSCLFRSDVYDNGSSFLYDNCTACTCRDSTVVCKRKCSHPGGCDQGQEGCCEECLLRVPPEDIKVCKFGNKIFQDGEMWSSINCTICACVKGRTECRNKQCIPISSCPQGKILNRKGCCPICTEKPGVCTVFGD

Kd: 0.55 nM
B1: TWSG1 (protein)
chain: CNKALCASDVSKCLIQELCQCRPGEGNCSCCKECMLCLGALWDECCDCVGMCNPRNYSDTPPTSKSTVEELHEPIPSLFRALTEGDTQLNWNIVSFPVAEELSHHENLVSFLETVNQPHHQNVSVPSNNVHAPYSSDKEHMCTVVYFDDCMSIHQCKISCESMGASKYRWFHNACCECIGPECIDYGSKTVKCMNCMF
